Consider one molecule from PMC8505757 (Journal of Molecular Biology, 2021).

Non-standard residues stand in square brackets, D forms with d. pS = N[C@@H](COP(=O)(O)O)C(=O)O

The target of this assay is T1, 14-3-3σΔC (human, UniProt P31947 1-231).
T1 sequence (looked up): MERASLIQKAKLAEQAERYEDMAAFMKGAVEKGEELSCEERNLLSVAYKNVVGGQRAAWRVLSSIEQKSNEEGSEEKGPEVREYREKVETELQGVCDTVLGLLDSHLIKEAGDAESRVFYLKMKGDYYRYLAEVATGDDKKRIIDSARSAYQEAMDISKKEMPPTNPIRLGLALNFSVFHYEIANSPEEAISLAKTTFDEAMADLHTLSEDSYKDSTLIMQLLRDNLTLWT
Nature of the assay: crystal structure.

B1: Ataxin-1 pS776 peptide (AcNH-RKRRWpSAPESR-NH2) (peptide)
peptide: Ac-RKRRW[pS]APESR-NH2
SMILES: CC(=O)N[C@@H](CCCNC(=N)N)C(=O)N[C@@H](CCCCN)C(=O)N[C@@H](CCCNC(=N)N)C(=O)N[C@@H](CCCNC(=N)N)C(=O)N[C@@H](Cc1c[nH]c2ccccc12)C(=O)N[C@@H](COP(=O)(O)O)C(=O)N[C@@H](C)C(=O)N1CCC[C@H]1C(=O)N[C@@H](CCC(=O)O)C(=O)N[C@@H](CO)C(=O)N[C@@H](CCCNC(=N)N)C(N)=O
B1: the binding result is on record as “binds”.
